# T1: FGFR1-DII (Homo sapiens, UniProt P11362)
# T1 construct: The FGFR1 extracellular domain has DII and DIII domains; made in house; host or cells: AAVpro293T cells
# T1 sequence (P11362 158-246 limits assumed): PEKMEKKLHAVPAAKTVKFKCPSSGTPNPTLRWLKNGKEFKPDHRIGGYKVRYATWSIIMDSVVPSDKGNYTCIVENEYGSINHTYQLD
# T2: FGFR1-DIII (Homo sapiens, UniProt P11362)
# T2 construct: The FGFR1 extracellular domain has DII and DIII domains; made in house; host or cells: AAVpro293T cells
# T2 sequence (P11362 255-357 limits assumed): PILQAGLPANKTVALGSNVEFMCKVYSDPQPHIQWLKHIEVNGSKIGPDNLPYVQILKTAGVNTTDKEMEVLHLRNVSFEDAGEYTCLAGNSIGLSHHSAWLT
# B1: VHH Clone #1: alpaca-derived VHH single-domain antibody (monomer) binding FGFR1, amino acid sequence SEQ ID NO: 17 (protein)
# VHH: QLQLVESGGGSVQAGGSLRLSCAASRSLSRFNVWTWYRQAPVKQRELVASITKSGDTNYAESVKGRFIISRDDDKNTVYLQMNNLKSEDTGIYYCAGSYYSGSYLYPSPGGFSVWGQGTQVTVSS
# modifications: VHH_Clone_#1
# B2: #1-L4-#1: dimer of VHH #1 with linker L4 (GSEGKSSGSGSESKST), SEQ ID NO: 23 (protein)
# VHH: QLQLVESGGGSVQAGGSLRLSCAASRSLSRFNVWTWYRQAPVKQRELVASITKSGDTNYAESVKGRFIISRDDDKNTVYLQMNNLKSEDTGIYYCAGSYYSGSYLYPSPGGFSVWGQGTQVTVSSGSEGKSSGSGSESKSTQLQLVESGGGSVQAGGSLRLSCAASRSLSRFNVWTWYRQAPVKQRELVASITKSGDTNYAESVKGRFIISRDDDKNTVYLQMNNLKSEDTGIYYCAGSYYSGSYLYPSPGGFSVWGQGTQVTVSS
# modifications: #1-L4-#1
# Legend:
# FGFR3-Fc = assay: SPR affinity of VHH (monomer) for FGFR3-Fc; format: binding, human; conditions: same manner as Example 5
# Method: The binding activity of VHH Clone #1 or VHH Clone #2 immobilized on Series S Sensor Chip CAP (manufactured by Cytiva) with respect to FGFR1-Fc was measured using Biacore (registered trademark) T200 (manufactured by Cytiva). Measurement was performed by CAP Single-cycle Kinetics. The temperature was set to 25° C. As a running buffer, 10 mM HEPES (pH 7.4) (Cytiva) including HBS-EP+(150 mM NaCl, 0.5 mM EDTA, and 0.05% surfactant P20) was used. The measurement order for each run is as follows.
# 2) Measurement of binding activity: The flow rate was set to 30 μL/mL, and VHH Clone #1 or VHH Clone #2 each diluted to 1.85 nM, 5.56 nM, 16.67 nM, or 50 nM, using a running buffer, was allowed to have an association time set to 120 seconds for binding and a dissociation time set to 600 seconds for interaction.
# 3) Regeneration of sensor chip surface: The flow rate was set to 10 μL/mL, a solution in which Reaneration stock 1 and Regeneration stock 2 (manufactured by Cytiva) were mixed at the ratio of 3:1 was added thereto for 120 seconds to extract the immobilized VHH. Next, analysis was performed with a 1:1 binding model using Biacore T200 Evaluation (software version 2.0, manufactured by Cytiva), and the binding activity was calculated.
# The binding activity of VHH Clone #1 to FGFR2-Fc, FGFR3-Fc, or FGFR4-Fc was measured in the same manner as in Example 5.
# FGFR1-DIIDIII = assay: Binding activity by biolayer interference (BLI) to FGFR1-DIIDIII; parameters: species or system human; conditions: 1:1 binding model
# Method: (§1) The FGFR1 extracellular domain has DII and DIII domains. Each of an FGFR1 extracellular domains (hereinafter may be abbreviated as “FGFR1-DIIDIII”, “FGFR1-DII”, or “FGFR1-DIII”) was expressed using AAVpro293T cells as follows, these domains were purified, and an affinity measurement test with VHH Clone #1 was performed by a biolayer interference (BLI) method.
# (§2) The binding activities of FGFR1-DIIDIII, FGFR1-DII, and FGFR1-DIII to VHH Clone #1 were measured by a biolayer interference method (hereinafter sometimes abbreviated as “BLI”). In BLI, using Octet 384 (manufactured by Fortebio), VHH Clone #1 diluted with a kinetics buffer (0.05% Tween20-containing PBS, pH 7.4) was immobilized on an Anti-Penta-HIS (HIS1K, manufactured by Fortebio) sensor chip, and bound to FGFR1-DIIDIII, FGFR1-DII, and FGFR1-DIII, which had been adjusted from 100 nM in 2-fold serial dilutions, and the dissociation rate was measured.
# (§3) In the preparation for measurement, a tip of the sensor chip was immersed in 200 μL of the kinetics buffer for 10 minutes in order to hydrate the sensor chip. […]
# (§4) After completion of the measurements, the measured value of a Reference (only the kinetics buffer) was subtracted from the actual measurement value, and Global Fitting was performed using a 1:1 binding model using Octet software to calculate the binding activity (FIG. 22).
# FGFR1-DII = molecular target: T1, FGFR1-DII; assay: Binding activity by biolayer interference (BLI) to FGFR1-DII; conditions: Octet, VHH immobilized
# Method: as §1, §2, §3, §4
# FGFR1-DIII = molecular target: T2, FGFR1-DIII; assay: Binding activity by biolayer interference (BLI) to FGFR1-DIII; conditions: 1:1 binding model
# Method: as §1, §2, §3, §4
# [1] = test system: phospho-p44/42 MAPK (Erk½); assay: Agonist activity by Western blotting in NIH3T3 cells; format: cell-based, mouse; conditions: VHH 100 nM, 30 minutes
# Method: In order to verify the agonist activity for VHH-C(represented by #1_C in the drawing), #1-L4-#1, and #1_Fc, which were obtained in Examples above, the measurement was performed as described below using Western blotting for a change in expression level of Phospho-p44/42 MAPK (Erk½). Furthermore, a basic fibroblast growth factor (bFGF; manufactured by Fujifilm Wako Pure Chemical Corporation) was used as a positive control.
# As NIH3T3, those described in Example 7 were used. NIH3T3 cells were seeded on a 6-well plate for cell culture at 2× 10^5 cells/well, and culture was performed overnight (37° C., in a 5% CO2 incubator, with light shielded). After washing with a serum-free medium, bFGF (final concentration: 10 ng/mL) or VHH (final concentration: 100 nM) diluted with the serum-free medium was added thereto, and normal culture was performed for 30 minutes. Thereafter, the well was washed with ice-cooled PBS, and the cells were peeled off with a cell scraper, transferred to a tube, and centrifuged at 300×g for 5 minutes at 4° C. to recover the cells. Thereafter, the cells were solubilized with a phosphatase inhibitor-containing RIPA buffer and left to stand on ice for 30 minutes. After the solubilization reaction, centrifugation was performed at 12,000×g for 15 minutes at 4° C. to recover the supernatant. […]
# FGFR1-DIIDIII, sequence (P11362 158-357 limits assumed): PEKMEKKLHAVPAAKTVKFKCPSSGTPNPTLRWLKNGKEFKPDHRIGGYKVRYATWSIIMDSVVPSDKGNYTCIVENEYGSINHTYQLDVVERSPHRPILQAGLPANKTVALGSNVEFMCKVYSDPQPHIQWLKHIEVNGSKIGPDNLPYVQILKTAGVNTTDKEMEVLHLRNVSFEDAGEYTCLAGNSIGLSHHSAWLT
Molecule,ka (FGFR3-Fc),kd (FGFR3-Fc),Koff (FGFR1-DIIDIII),Kon (FGFR1-DIIDIII),KD (M) (FGFR1-DII),Koff (FGFR1-DIII),Kon (FGFR1-DIII),agonist activity (expression of phosphorylated p44/42 MAPK (Erk½)) [1]
B1,232000 M⁻¹ s⁻¹,0.235 s⁻¹,0.000141 s⁻¹,289000 M/s,No Binding,0.000351 s⁻¹,298000 M/s,–
B2,–,–,–,–,–,–,–,exhibit an agonist activity
